Blank lines part the entries; values can stand above or below the binder they belong to.
What was measured:
Noggin = molecular target: T1, Noggin (UniProt Q13253 28-232); assay: SPR; activin A, TGF-β3 or BMP2 immobilised on a CM4 chip (EDC-NHS, up to 400 RU); antibodies or control binders flowed over; BIAcore T200; 10 mM CHES, 150 mM NaCl, 3 mM EDTA, 0.01% P20, pH 8.0; 1:1 kinetic model; conditions: both partners purified
T1 construct: Noggin, bought from Peprotech; source: bought: Peprotech
T1 sequence (looked up): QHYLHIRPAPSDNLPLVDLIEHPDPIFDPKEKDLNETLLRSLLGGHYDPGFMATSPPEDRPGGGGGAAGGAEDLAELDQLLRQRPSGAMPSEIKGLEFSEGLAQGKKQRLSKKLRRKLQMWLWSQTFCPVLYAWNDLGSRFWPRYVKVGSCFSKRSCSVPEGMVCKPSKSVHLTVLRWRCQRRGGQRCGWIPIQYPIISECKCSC

ACVR2B-ECD (used in SPR) = molecular target: T2, ACVR2B-ECD (used in SPR) (UniProt Q13705 19-137); assay: as above; conditions: both partners purified
T2 construct: also called ACVR2B extracellular domain (ECD)
T2 sequence (looked up): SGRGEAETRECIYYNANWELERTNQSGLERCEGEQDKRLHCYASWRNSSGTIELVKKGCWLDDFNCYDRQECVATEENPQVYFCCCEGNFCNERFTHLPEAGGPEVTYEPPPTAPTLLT

Kd (Noggin): 1.26 nM
B1: BMP2 (ligand, UniProt P12643 283-396, looked up)
chain: QAKHKQRKRLKSSCKRHPLYVDFSDVGWNDWIVAPPGYHAFYCHGECPFPLADHLNSTNHAIVQTLVNSVNSKIPKACCVPTELSAISMLYLDENEKVVLKNYQDMVVEGCGCR
notes: BMP2, bought from Peprotech; source: bought: Peprotech

Kd (ACVR2B-ECD (used in SPR)): 114 nM
B2: activin A (immobilised on the SPR chip) (ligand, UniProt P08476 311-426, looked up)
chain: GLECDGKVNICCKKQFFVSFKDIGWNDWIIAPSGYHANYCEGECPSHIAGTSGSSLSFHSTVINHYRMRGHSPFANLKSCCVPTKLRPMSMLYYDDGQNIIKKDIQNMIVEECGCS

From doi:10.1101/2025.06.13.659133, “Anti-activin treatment increases T cell infiltration in breast and pancreatic tumours and promotes survival in a SMAD4-null mouse pancreatic cancer model” (bioRxiv, 2025)
